Test results as given in US8663964B2, “Methods of treating human papillomavirus” (Tamir Biotechnology, Inc., priority 2011, dated 2014).

Key:
cancer cells = details: because of enzymatic activity against RNA; cited from earlier work
HPV type 11 = assay: quantitative reverse transcriptase PCR (QRT-PCR) antiviral assay against HPV type 11 in A-431 cells; assay type: cell-based, type 11 human papillomavirus; details: HPV-11 in A-431 cells
Experimental: To evaluate the activity of the tested RNases against type 11 HPV infections, the following quantitative PCR assay was used:
Solutions of the tested RNases were prepared in cell culture medium without use of dimethyl sulfoxide (“DMSO”). DMSO is unnecessary because the tested RNases are water-soluble.
HPV is an DNA virus. Antiviral activity against HPV type 11 was evaluated using a quantitative reverse transcriptase PCR (QRT-PCR) assay. Initially, on Day 1, 1 million A-431 cells were placed in 6-well dishes in Dulbecco's Modified Eagle Medium (“DMEM”) supplemented with 10% fetal bovine serum (“FBS”). The cells were then incubated for two days at 37° C.
After this incubation period, on day 2 replicate aliquots of HPV-11 were added to each non-control well, representing a multiplicity of infection (“MOI”) of 150 particles per cell in DMEM containing 2.5% FBS.
One day later, i.e. on day 3, DMEM with 10% FBS was added to each cell culture well.
One day later, i.e. on day 4, the tested compounds were added to the non-control cell culture wells. Control wells received media alone, or the vehicle used to dilute the tested compounds. Cidofovir diluted to 300 ug/ml was used as a positive control. […]
Finally, one day later, on […], QRT-PCR was carried out to quantitate the proportion of viral E1^E4 transcripts and a cellular reference RNA for the TATA-binding protein (“TBP”). […]

[1] = cited from earlier work

Row | Molecule | cytotoxicity to cancer cells (cancer cells) | activity against type 11 HPV (as seen in FIG. 1; SI = CC50/EC50) (HPV type 11) | toxicity and tolerability in humans [1]
1 | Val11, Asn20, Arg103—Ranpirnase ['805 variant] | cytotoxic to certain cancer cells | extraordinarily active | 
2 | ranpirnase (protein, UniProt P22069 1-104, looked up, An RNase disclosed and claimed in U.S. Pat. No. 5,559,212; registered trademark ONCONASE) Protein P-30: QDWLTFQKKHITNTRDVDCDNIMSTNLFHCKDKNTFIYSRPEPVKAICKGIIASKNVLTTSEFYLSDCNVTSRPCKYKLKKSTNKFCVTCENQAPVHFVGVGSC | cytotoxic to cancer cells | extraordinarily active | non-toxic and well-tolerated
